The text below walks through data of article PMC12344693, “Human Milk Oligosaccharides Multivalently Presented on Defined Synthetic Neo-Glycoproteins Are Nanomolar Ligands of Tandem-Repeat Galectins” (Biomacromolecules, 2025).

Read-outs that look alike come from different tables or passages of the source.

Assay [1] concerns the target T1, Gal-4 (Homo sapiens, UniProt P56470).
T1 construct: Full-length recombinant human galectins (Gal-1, Gal-3, Gal-4, Gal-8, and Gal-9) for ELISA assays; made in house; host or cells: E. coli Rosetta 2(DE3)pLysS
T1 sequence (P56470 1-323): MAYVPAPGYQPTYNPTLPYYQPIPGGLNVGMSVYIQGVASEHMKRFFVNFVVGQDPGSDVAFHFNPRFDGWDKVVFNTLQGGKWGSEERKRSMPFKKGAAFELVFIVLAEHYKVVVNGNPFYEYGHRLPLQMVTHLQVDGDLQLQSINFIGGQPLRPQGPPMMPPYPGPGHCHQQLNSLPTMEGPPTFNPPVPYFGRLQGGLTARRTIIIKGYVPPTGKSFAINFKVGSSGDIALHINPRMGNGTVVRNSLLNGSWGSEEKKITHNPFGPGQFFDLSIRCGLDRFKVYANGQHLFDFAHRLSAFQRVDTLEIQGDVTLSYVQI
In words: direct ELISA, galectin binding to immobilized asialofetuin. To be noted: AVI-tagged Gal-4, read-out: KD for ASF, AVI-tag. As to the method:
(§1) detailed in the main text.
(§2) respective galectin in EPBS (50 μL/well).
A general note: ELISA stands for enzyme-linked immunosorbent assay.

The target of assay [2] is T2, Gal-4C (Homo sapiens, UniProt P56470).
T2 construct: Tandem-repeat galectins consist of an N-terminal and a C-terminal carbohydrate recognition domain (CRD) interconnected with a peptide linker; His-tag; made in house; host or cells: E. coli
T2 sequence (P56470 194-323 limits assumed): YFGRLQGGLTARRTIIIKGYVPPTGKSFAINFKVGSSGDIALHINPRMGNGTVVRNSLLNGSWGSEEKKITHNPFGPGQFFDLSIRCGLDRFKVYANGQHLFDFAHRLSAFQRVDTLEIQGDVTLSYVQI
The assay is described as above. The conditions noted are these: AVI-tagged Gal-4C, read-out: KD for ASF, AVI-tag. As to the method:
as §1, §2

Assay [3] addresses T3, Gal-4N (Homo sapiens, UniProt P56470).
T3 construct: Tandem-repeat galectins consist of an N-terminal and a C-terminal carbohydrate recognition domain (CRD) interconnected with a peptide linker; His-tag; made in house; host or cells: E. coli
T3 sequence (P56470 19-150 limits assumed): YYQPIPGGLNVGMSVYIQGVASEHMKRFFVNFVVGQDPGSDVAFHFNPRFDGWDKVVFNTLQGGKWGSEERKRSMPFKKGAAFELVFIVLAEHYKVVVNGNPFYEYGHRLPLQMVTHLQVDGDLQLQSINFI
Described as above. The conditions noted are these: AVI-tagged Gal-4N, read-out: KD for ASF, AVI-tag. As to the method: as §1, §2

Assay [4] addresses T4, Gal-8 (Homo sapiens, UniProt O00214).
T4 construct: Full-length recombinant human galectins (Gal-1, Gal-3, Gal-4, Gal-8, and Gal-9) for ELISA assays; made in house; host or cells: E. coli Rosetta 2(DE3)pLysS
T4 sequence (O00214 1-317): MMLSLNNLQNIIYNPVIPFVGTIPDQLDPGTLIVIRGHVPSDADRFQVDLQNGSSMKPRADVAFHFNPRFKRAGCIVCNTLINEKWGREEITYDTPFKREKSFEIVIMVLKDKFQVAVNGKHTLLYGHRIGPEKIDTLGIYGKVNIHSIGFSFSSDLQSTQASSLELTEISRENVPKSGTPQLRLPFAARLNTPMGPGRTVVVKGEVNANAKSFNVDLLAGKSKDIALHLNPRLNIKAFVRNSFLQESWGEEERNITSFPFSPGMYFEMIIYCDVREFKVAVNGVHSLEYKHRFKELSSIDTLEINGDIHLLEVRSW
The assay is described as above. To be noted: AVI-tagged Gal-8, read-out: KD for ASF, AVI-tag. As to the method:
as §1, §2

Assay [5] addresses T5, Gal-8C (Homo sapiens, UniProt O00214).
T5 construct: Tandem-repeat galectins consist of an N-terminal and a C-terminal carbohydrate recognition domain (CRD) interconnected with a peptide linker; His-tag; made in house; host or cells: E. coli
T5 sequence (O00214 187-317 limits assumed): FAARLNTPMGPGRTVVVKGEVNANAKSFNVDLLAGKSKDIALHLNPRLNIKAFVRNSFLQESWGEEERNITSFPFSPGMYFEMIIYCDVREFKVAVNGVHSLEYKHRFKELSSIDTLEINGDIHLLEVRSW
The assay is described as above. The conditions noted are these: AVI-tagged Gal-8C, read-out: KD for ASF, AVI-tag. As to the method:
as §1, §2

Assay [6] has as its target T6, Gal-8N (Homo sapiens, UniProt O00214).
T6 construct: Tandem-repeat galectins consist of an N-terminal and a C-terminal carbohydrate recognition domain (CRD) interconnected with a peptide linker; His-tag; made in house; host or cells: E. coli
T6 sequence (O00214 19-152 limits assumed): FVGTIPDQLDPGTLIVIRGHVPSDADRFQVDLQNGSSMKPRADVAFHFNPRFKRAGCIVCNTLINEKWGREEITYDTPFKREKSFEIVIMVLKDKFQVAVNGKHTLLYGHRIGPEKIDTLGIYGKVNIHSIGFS
The assay is described as above. To be noted: AVI-tagged Gal-8N, read-out: KD for ASF, AVI-tag. As to the method:
as §1, §2

Assay [7] addresses T7, Gal-9 (Homo sapiens, UniProt O00182, A222P/DEL149-219).
T7 construct: Full-length recombinant human galectins (Gal-1, Gal-3, Gal-4, Gal-8, and Gal-9) for ELISA assays; made in house; host or cells: E. coli Rosetta 2(DE3)pLysS
Described as above. The conditions noted are these: AVI-tagged Gal-9, read-out: KD for ASF, AVI-tag. As to the method:
as §1, §2

The target in assay [8] is T8, Gal-9C (Homo sapiens, UniProt O00182, A222P).
T8 construct: Tandem-repeat galectins consist of an N-terminal and a C-terminal carbohydrate recognition domain (CRD) interconnected with a peptide linker; His-tag; made in house; host or cells: E. coli
Described as above. To be noted: AVI-tagged Gal-9C, read-out: KD for ASF, AVI-tag. As to the method: as §1, §2

Assay [9] concerns the target T9, Gal-9N (Homo sapiens, UniProt O00182, DELINS149-222HPP).
T9 construct: Tandem-repeat galectins consist of an N-terminal and a C-terminal carbohydrate recognition domain (CRD) interconnected with a peptide linker; His-tag; made in house; host or cells: E. coli
The description is as above. The conditions noted are these: AVI-tagged Gal-9N, read-out: KD for ASF, AVI-tag. As to the method:
as §1, §2

In assay [10] the target is T1, Gal-4. Further details: method as in ref 11 (a number printed in a supplementary file, which may have a reference list of its own: not looked up in the article's list). The conditions noted are these: direct ELISA; His-tagged Gal-4; read-out: KD for ASF, His-tag; cited from earlier work.
For assay [11], the target named is T3, Gal-4N. On the set-up: method as in ref 11 (a number printed in a supplementary file, which may have a reference list of its own: not looked up in the article's list). To be noted: direct ELISA; His-tagged Gal-4N; read-out: KD for ASF, His-tag; cited from earlier work.
The target in assay [12] is T2, Gal-4C. On the set-up: method as in ref 11 (a number printed in a supplementary file, which may have a reference list of its own: not looked up in the article's list). To be noted: direct ELISA; His-tagged Gal-4C; read-out: KD for ASF, His-tag; cited from earlier work.
The target in assay [13] is T4, Gal-8. Further details: method as in ref 19 (a number printed in a supplementary file, which may have a reference list of its own: not looked up in the article's list). The conditions noted are these: direct ELISA; His-tagged Gal-8; read-out: KD for ASF, His-tag; cited from earlier work.
Assay [14] deals with T6, Gal-8N. On the set-up: method as in ref 19 (a number printed in a supplementary file, which may have a reference list of its own: not looked up in the article's list). To be noted: direct ELISA; His-tagged Gal-8N; read-out: KD for ASF, His-tag; cited from earlier work.
Assay [15] concerns the target T5, Gal-8C. Further details: method as in ref 19 (a number printed in a supplementary file, which may have a reference list of its own: not looked up in the article's list). To be noted: direct ELISA; His-tagged Gal-8C; read-out: KD for ASF, His-tag; cited from earlier work.
Assay [16] concerns the target T7, Gal-9. On the set-up: method as in ref 19 (a number printed in a supplementary file, which may have a reference list of its own: not looked up in the article's list). The conditions noted are these: direct ELISA; His-tagged Gal-9; read-out: KD for ASF, His-tag; cited from earlier work.
Assay [17] has as its target T9, Gal-9N. On the set-up: method as in ref 19 (a number printed in a supplementary file, which may have a reference list of its own: not looked up in the article's list). The conditions noted are these: direct ELISA; His-tagged Gal-9N; read-out: KD for ASF, His-tag; cited from earlier work.
Assay [18] deals with T8, Gal-9C. On the set-up: method as in ref 19 (a number printed in a supplementary file, which may have a reference list of its own: not looked up in the article's list). The conditions noted are these: direct ELISA; His-tagged Gal-9C; read-out: KD for ASF, His-tag; cited from earlier work.

T7 sequence (O00182 with tags, fused parts or gaps DEL149-219/A222P): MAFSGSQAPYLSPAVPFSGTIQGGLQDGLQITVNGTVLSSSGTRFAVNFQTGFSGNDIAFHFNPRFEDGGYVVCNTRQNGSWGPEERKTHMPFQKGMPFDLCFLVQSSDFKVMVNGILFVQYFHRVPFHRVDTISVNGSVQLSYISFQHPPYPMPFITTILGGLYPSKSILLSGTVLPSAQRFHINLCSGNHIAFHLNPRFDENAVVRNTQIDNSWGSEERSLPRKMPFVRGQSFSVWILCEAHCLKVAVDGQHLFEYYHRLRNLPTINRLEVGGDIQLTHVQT
T9 sequence (O00182 with tags, fused parts or gaps DELINS149-222HPP): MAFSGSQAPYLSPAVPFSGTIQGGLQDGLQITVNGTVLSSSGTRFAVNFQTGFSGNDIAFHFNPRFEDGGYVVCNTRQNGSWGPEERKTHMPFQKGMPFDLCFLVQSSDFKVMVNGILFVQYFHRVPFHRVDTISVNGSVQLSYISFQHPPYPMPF
T8 sequence (O00182 220-355 A222P): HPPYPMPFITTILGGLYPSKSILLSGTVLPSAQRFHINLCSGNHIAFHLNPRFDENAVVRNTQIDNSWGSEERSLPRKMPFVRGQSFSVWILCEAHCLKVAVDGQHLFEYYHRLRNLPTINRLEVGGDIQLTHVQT

What is called Kd is the free concentration of one partner at which half of the binding sites on the other are occupied at equilibrium, for simple one-to-one binding. Regarding “ASF: asialofetuin, glycoprotein immobilized on ELISA plates as galectin ligand”, the Kd in the assay with Gal-4 [1] came to 2.3 ± 0.8 µM; with Gal-4C [2], 6.5 ± 1.2 µM; with Gal-4N [3], 17 ± 2 µM; in the assay with Gal-8 [4], 0.32 ± 0.13 µM; with Gal-8C [5], 11 ± 2 µM; in the assay with Gal-8N [6], 4.6 ± 1.3 µM. The Kd in the assay with Gal-9 [7] is 0.18 ± 0.05 µM; with Gal-9C [8], 4.9 ± 0.4 µM; with Gal-9N [9] it was 11 ± 4 µM; with Gal-4 [10] it was 3.3 ± 1.1 µM; with Gal-4N [11], 38 ± 3 µM; with Gal-4C [12] it was 19 ± 2 µM. The Kd with Gal-8 [13] is 0.14 ± 0.06 µM; in the assay with Gal-8N [14], 2.3 ± 0.5 µM; with Gal-8C [15] it was 9.4 ± 0.4 µM; with Gal-9 [16], 0.15 ± 0.04 µM; with Gal-9N [17], 25 ± 6 µM; in the assay with Gal-9C [18] it was 3.6 ± 0.5 µM.
